Source: patent US5861377

Assays:
[1] = target: chymotrypsin (inhibition assay used during purification)
[2] = target: trypsin (inhibition assay used during purification)

specific activity (SA) of chymotrypsin inhibition, Mono S pool [1]: 0.15 IU/mg
specific activity (SA) of trypsin inhibition, Mono S pool [2]: 2.7 IU/mg
Substance: hirustasin (Hirudo antistasin)
